The values that follow come from article PMC7859323.

This assay addresses Gla domainless factor VIIa (human) (UniProt P08709). The assay can be described thus: titration of enzyme activity (rate of FX activation by des Gla-FVIIa).

Where “and” joins values, the source holds several entries; their conditions need not be identical. Equal values may be shown once.

Chain of UniProt P08709 (P08709 21-466, chain 1 of 2): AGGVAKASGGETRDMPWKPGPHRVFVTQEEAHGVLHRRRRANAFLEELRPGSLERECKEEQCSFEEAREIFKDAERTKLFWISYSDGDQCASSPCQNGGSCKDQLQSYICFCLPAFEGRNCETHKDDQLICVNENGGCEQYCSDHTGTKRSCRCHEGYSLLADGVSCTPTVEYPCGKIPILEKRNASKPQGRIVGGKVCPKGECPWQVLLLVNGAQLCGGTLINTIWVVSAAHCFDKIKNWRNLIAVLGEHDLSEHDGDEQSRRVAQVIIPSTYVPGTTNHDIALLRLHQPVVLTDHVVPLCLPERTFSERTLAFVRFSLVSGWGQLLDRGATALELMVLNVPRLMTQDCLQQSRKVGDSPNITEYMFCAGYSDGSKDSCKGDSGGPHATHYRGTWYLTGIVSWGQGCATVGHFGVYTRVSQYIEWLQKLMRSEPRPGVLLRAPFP
Chain of UniProt P08709 (P08709 213-466, chain 2 of 2): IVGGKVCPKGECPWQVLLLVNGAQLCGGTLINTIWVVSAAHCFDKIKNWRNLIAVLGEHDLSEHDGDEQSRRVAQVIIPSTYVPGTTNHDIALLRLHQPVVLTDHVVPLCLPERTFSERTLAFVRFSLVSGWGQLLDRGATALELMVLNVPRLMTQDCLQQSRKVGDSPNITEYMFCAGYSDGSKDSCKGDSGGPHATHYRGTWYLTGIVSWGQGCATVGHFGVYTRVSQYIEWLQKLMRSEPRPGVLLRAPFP

For “recombinant soluble tissue factor (from UniProt P13726 33-251) (domain or fragment)”, the Kd is 5 nM and 2.7 nM.
